Numbered stars: 1 amine (or outer) side, 2 acyl side, 3 side chain; on linkers, the order of the positions; unused ones are H or OH. Bridge positions count the residues as written; N and C are the ends. Square brackets hold non-standard residues; d marks the D form. Ends that are not written are not given here. Peptide text beside a SMILES is read from it. KCOpipzaa = N6-(4-(carboxymethyl)piperazine-1-carbonyl)-L-lysine, O=C(NCCCC[C@H](N[*:1])C(=O)[*:2])N1CCN(CC(=O)[*:3])CC1; Bph3F = (S)-2-amino-3-(3'-fluoro-[1,1'-biphenyl]-4-yl)propanoic acid, O=C([C@H](Cc1ccc(-c2cccc(F)c2)cc1)N[*:1])[*:2]; 3Pal(6-Ph) = N[C@@H](Cc1ccc(-c2ccccc2)nc1)C(=O)O; Phe(4-COOH) = N[C@@H](Cc1ccc(C(=O)O)cc1)C(=O)O; Bip = N[C@@H](Cc1ccc(-c2ccccc2)cc1)C(=O)O; Ala(cPent) = N[C@@H](CC1CCCC1)C(=O)O; cisHyp = O=C(O)[C@@H]1C[C@H](O)CN1; Hyp = O=C(O)[C@@H]1C[C@@H](O)CN1; NMeF = CN[C@@H](Cc1ccccc1)C(=O)O; hCit = NC(=O)NCCCC[C@H](N)C(=O)O; 4Pal = N[C@@H](Cc1ccncc1)C(=O)O; Aad = N[C@@H](CCCC(=O)O)C(=O)O; Cha = N[C@@H](CC1CCCCC1)C(=O)O; Cba = N[C@@H](CC1CCC1)C(=O)O; βAla = NCCC(=O)O
Key:
[1] = biological target: T1, BMP7 (Homo sapiens, UniProt P18075); assay: BMP7 signal transduction inhibitory activity: SMAD1 phosphorylation by BMP7 stimulus, A549 cells; type: cell-based; settings: for aLISA BMP7: A549 cells; for aLISA BMP7 (10 nM) % inh: SMAD1 phosphorylation
T1 sequence (P18075 293-431): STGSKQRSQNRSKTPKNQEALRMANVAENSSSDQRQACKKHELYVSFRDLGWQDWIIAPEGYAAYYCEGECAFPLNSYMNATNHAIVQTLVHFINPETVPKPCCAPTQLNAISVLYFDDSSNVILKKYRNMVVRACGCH
Method: In the present Example, BMP7 signal transduction inhibitory activity of each peptide consisting of an amino acid sequence set forth in any of SEQ ID NOs: 5 to 240 and 243 to 421 synthesized in Example 10 was verified by phosphorylation of SMAD1 caused by BMP7 stimulus. The evaluation was performed using 10 nM of BMP7 instead of BMP 4. Regarding SEQ ID NOs: 5 to 240, the concentrations of the peptides synthesized in the same manner as in Example 2 (shown as 2 in the row of Synthesis) were 1 nM, 10 nM, and 100 nM, and the concentrations of the peptides synthesized in the same manner as in Example 1 (shown as 1 in the row of Synthesis) were 10 nM, 100 nM, and 1,000 nM, similarly with Example 11. […] Regarding SEQ ID NOs: 243 to 273 and SEQ ID NOs: 299 to 321, the test was performed at the concentrations (10, 100, 1,000 nM) described in Table 6. […] Regarding SEQ ID NOs: 274 to 298, the test was performed at the concentrations (100, 300, 1,000 nM) described in Table 6. […] Regarding SEQ ID NOs: 322 to 370 and SEQ ID NOs: 393 to 421, the test was performed at the concentrations (1, 10, 100 nM). […] Regarding SEQ ID NOs: 371 to 391, the test was performed at the concentrations (10, 30, 90 nM). […] The evaluation tests of the signal transduction inhibitory activities of SEQ ID NOs: 87, 177, and 181 are as follows. Specifically, the inhibitory activity of BMP4 was evaluated in the same manner as in Example 11 that used A549 cells. Eight concentrations of the peptides were used at a common ratio of 1/3 starting from 2 nM. The inhibitory activity of BMP7 was evaluated in the same manner as in Example 12. Eight concentrations of the peptides were used at a common ratio of 1/3 starting from 100 nM. Note that recombinant Human Noggin Protein (R&D) as a positive control was used at the same concentration as that of the peptide. […] The inhibitory activity of BMP7 was evaluated using eight concentrations of the peptides at a common ratio of 1/3 starting from 1,000 nM in the same manner as in Example 12.

[2] = biological target: T2, BMP4 (Homo sapiens, UniProt P12644); assay: BMP4 signal transduction inhibitory activity: SMAD1 phosphorylation by BMP4 stimulus, AlphaLISA SureFire, A549 cells; type: cell-based; settings: for aLISA BMP4: A549 cells
T2 sequence (P12644 293-408): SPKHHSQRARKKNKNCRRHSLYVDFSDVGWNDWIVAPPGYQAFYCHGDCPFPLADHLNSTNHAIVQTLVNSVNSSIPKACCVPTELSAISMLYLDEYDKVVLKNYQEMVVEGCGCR
Method: In the present Example, a BMP4 signal transduction inhibitory activity of each peptide consisting of an amino acid sequence set forth in any of SEQ ID NOs: 5 to 240 and 243 to 421 synthesized in Example 10 was verified by phosphorylation of SMAD1 caused by BMP4 stimulus. A549 cells were cultured in MEM (Thermo Fisher Scientific) containing 10% FBS (Thermo Fisher Scientific), 1×Non-essential amino acids (Thermo Fisher Scientific), and 50 μg/mL Gentamicin. After TrypLE (Gibco) was used to peel the cells, seeding was performed in a 96-well plate for adhesion cells so that the number of cells would be 20,000 per well, followed by culturing for 48 hours. After the cells were cultured as described above, the culture medium was replaced with a peptide solution or recombinant Human Noggin Protein (R&D) solution as a positive control diluted to various concentrations in a nutrition-starved culture medium containing 0.1% BSA (Sigma) instead of FBS Thirty minutes after culturing, […], to stimulate it for 60 minutes. The culture medium was removed and the cells were lysed with Lysis Buffer provided with AlphaLISA (registered trademark) SureFire (registered trademark) Ultra SMAD1 (p-[…]/465) Assay kit (PerkinElmer). According to the protocol of the kit, a signal was detected using SpectraMax (registered trademark) Paradigm (registered trademark) multimode microplate reader (Molecular Devices). The obtained signal was analysed using GraphPad Prism (GraphPad Software). The % inhibition was calculated by considering non-stimulation as 100% inhibition and BMP stimulation only as 0% inhibition. Regarding SEQ ID NOs: 5 to 187, the concentrations of the peptides synthesized in the same manner as in Example 2 (shown as 2 in the row of Synthesis) were 0.02 nM, 0.2 nM, and 2 nM, and the concentrations of the peptides synthesized in the same manner as in Example 1 (shown as 1 in the row of Synthesis) were 0.2 nM, 2 nM, and 20 nM. The evaluation results were based on the results of evaluation using the peptides synthesized in the same manner as in Example 2. […] Regarding SEQ ID NOs: 243 to 321, the test was performed at the concentrations described in Table 6. […] Regarding SEQ ID NOs: 322 to 421, the test was performed at the concentrations described in Table 7. […] The evaluation tests of the signal transduction inhibitory activities of SEQ ID NOs: 87, 177, and 181 are as follows. Specifically, the inhibitory activity of BMP4 was evaluated in the same manner as in Example 11 that used A549 cells. Eight concentrations of the peptides were used at a common ratio of 1/3 starting from 2 nM. The inhibitory activity of BMP7 was evaluated in the same manner as in Example 12. Eight concentrations of the peptides were used at a common ratio of 1/3 starting from 100 nM. Note that recombinant Human Noggin Protein (R&D) as a positive control was used at the same concentration as that of the peptide. […] The inhibitory activity of BMP7 was evaluated using eight concentrations of the peptides at a common ratio of 1/3 starting from 1,000 nM in the same manner as in Example 12.

[3] = 10 nM BMP7, peptides of Synthesis 2, peptide 1, 10, 100 nM
[4] = SMAD1 phosphorylation, peptides of Synthesis 2, peptide 0.02, 0.2, 2 nM
[5] = BMP7 10 nM, peptide conc. in assay 1, 10, 100 nM
[6] = SMAD1 phosphorylation, BMP4 0.2 nM, peptide conc. in assay 0.2, 2, 20 nM

CC(C)C[C@@H]1NC(=O)[C@H](Cc2ccccc2)N(C)C(=O)[C@H](CCCC(=O)O)NC(=O)[C@H](CC2CCCCC2)NC(=O)[C@H](CCC(=O)O)NC(=O)[C@H](CC(=O)O)NC(=O)CNC(=O)[C@H](Cc2ccc(-c3ccccc3)nc2)NC(=O)CNC(=O)[C@H](Cc2ccccc2)N(C)C(=O)CNC(=O)[C@H](Cc2ccccc2)NC(=O)CSC[C@@H](C(=O)NCCC(=O)N[C@H](CCC(=O)O)C(=O)O)NC(=O)[C@@H]2C[C@H](O)CN2C1=O [SEQ ID No. 415, ClAc-F-G-MeF-G-3Py6Ph-G-D-E-Cha-Hgl-MeF-L-P4Sh-C-bA-de-OH] ({CH2CO}-FG[NMeF]G[3Pal(6-Ph)]GDE[Cha][Aad][NMeF]L[cisHyp]C[βAla][dE]-OH; thioether N-14)
aLISA BMP7 [1, 3]: C (showed less than 50% of inhibitory activity in 10 nM-addition zone and showed 50% or more of inhibitory activity in 100 nM-addition zone) | aLISA BMP4 [2, 4]: A (showed an inhibitory activity of 50% or more in a zone to which the peptide was added to in an amount of 0.2 nM)

371 (FGFGFGDDAAFLHCG; not fully specified; MOD_RES 3 F represents Methyl-L-phenylalanine(MeF); MOD_RES 5 F represents (S)-3-(1,1'-Biphenyl-4-yl)-2-aminopropanoic acid(Bph); MOD_RES 9 A represents (S)-2-Amino-3-cyclohexylpropanoic acid(Cha); MOD_RES 11 F represents Methyl-L-phenylalanine(MeF)) [compound 371]
aLISA BMP7 (10 nM) % inh ([1]; BMP7 10 nM, peptide conc. in assay 10, 30, 90 nM): E (showed 30% or more of inhibitory activity in 10 nM-addition zone) | aLISA BMP4 (0.2 nM) % inh ([2]; SMAD1 phosphorylation, BMP4 0.2 nM, peptide conc. in assay 2, 20, 200 nM): A (showed less than 30% of inhibitory activity in 2 nM-peptide-addition zone and showed 30% or more of inhibitory activity in 20 nM-addition zone)

85 ({CH2CO}-ERVYVDR[Bip]SYV[Bip]Y[Phe(4-COOH)][Phe(4-COOH)]SC[βAla][dE]-OH; thioether N-17; not fully specified) [compound 85]
aLISA BMP7 ([1]; inhibition of SMAD1 phosphorylation by BMP7 stimulus, peptides of Synthesis 2, classes A-D, ND): C (showed less than 50% of inhibitory activity in 10 nM-addition zone and showed 50% or more of inhibitory activity in 100 nM-addition zone) | aLISA BMP4 ([2]; inhibition of SMAD1 phosphorylation by BMP4 stimulus, peptides of Synthesis 2, classes A-C, ND): A (showed an inhibitory activity of 50% or more in a zone to which the peptide was added to in an amount of 0.2 nM)

335 (FG[NMeF]G[Bip]GDD[Ala(cPent)]A[NMeF]LHCG-NH2; not fully specified (N-terminus, bridges)) [compound 335]
aLISA BMP7 (10 nM) % inh [1, 5]: D (showed less than 30% of inhibitory activity in 10 nM-addition zone and showed 30% or more of inhibitory activity in 100 nM-addition zone) | aLISA BMP4 (0.2 nM) % inh [2, 6]: ND (the inhibitory activity was less than 30% at the maximum concentration evaluated)

363 (FG[NMeF]G[3Pal(6-Ph)]GDE[Cha]A[NMeF]LHCG-NH2; not fully specified (N-terminus, bridges)) [compound 363]
aLISA BMP7 (10 nM) % inh [1, 5]: D (showed less than 30% of inhibitory activity in 10 nM-addition zone and showed 30% or more of inhibitory activity in 100 nM-addition zone) | aLISA BMP4 (0.2 nM) % inh [2, 6]: ND (the inhibitory activity was less than 30% at the maximum concentration evaluated)

137 ({CH2CO}-ERVYVDR[Bip][hCit]YV[Bip]Y[Phe(4-COOH)][Phe(4-COOH)]SCG-NH2; thioether N-17; not fully specified) [compound 137]
aLISA BMP7 ([1]; inhibition of SMAD1 phosphorylation by BMP7 stimulus, peptides of Synthesis 1, classes E, F, ND): E (showed 50% or more of inhibitory activity in a zone to which the peptide was added in an amount of 10 nM) | aLISA BMP4 ([2]; inhibition of SMAD1 phosphorylation by BMP4 stimulus, peptides of Synthesis 1, classes D-F, ND): D (showed 50% or more of inhibitory activity in 0.2 nM-addition zone)

334 (FG[NMeF]G[Bip]GND[Cha]A[NMeF]LHCG-NH2; not fully specified (N-terminus, bridges)) [compound 334]
aLISA BMP7 (10 nM) % inh [1, 5]: D (showed less than 30% of inhibitory activity in 10 nM-addition zone and showed 30% or more of inhibitory activity in 100 nM-addition zone) | aLISA BMP4 (0.2 nM) % inh [2, 6]: ND (the inhibitory activity was less than 30% at the maximum concentration evaluated)

29 ({CH2CO}-ARVYVDR[3Pal(6-Ph)]PYP[Bip]Y[Phe(4-COOH)][Phe(4-COOH)]SCG-NH2; thioether N-17; not fully specified) [compound 29]
aLISA BMP7 [1, 3]: ND (the inhibitory activity was less than 30% at the maximum concentration evaluated) | aLISA BMP4 [2, 4]: A (showed an inhibitory activity of 50% or more in a zone to which the peptide was added to in an amount of 0.2 nM)

316 (ERV[Phe(4-COOH)][Cba][KCOpipzaa]R[3Pal(6-Ph)][KCOpipzaa]Y[Hyp][Bph3F][4Pal][Phe(4-COOH)][Phe(4-COOH)]SCG-NH2; not fully specified) [compound 316]
aLIZA BMP7 (10 nM) % inh ([1]; BMP7 10 nM, peptide 10, 100, 1000 nM, Table 6): ND (the inhibitory activity was less than 30% at the maximum concentration evaluated) | aLIZA BMP4 (0.2 nM) % inh ([2]; BMP4 0.2 nM, peptide 0.02, 0.2, 2 nM, Table 6): C (showed less than 30% of inhibitory activity in 0.2 nM-addition zone and showed 30% or more of inhibitory activity in 2 nM-addition zone)

Source: US20250361274A1, “PEPTIDE AND PEPTIDE-CONTAINING AGENT” (PEPTIDREAM INC., priority 2022, published 2025)
